The target in this experiment is T1, SETD3 WT (Homo sapiens, UniProt Q86TU7).
T1 construct: GST (cleaved yes); made in house; host or cells: Escherichia coli BL21(DE3) CodonPlus
T1 sequence (Q86TU7 1-594): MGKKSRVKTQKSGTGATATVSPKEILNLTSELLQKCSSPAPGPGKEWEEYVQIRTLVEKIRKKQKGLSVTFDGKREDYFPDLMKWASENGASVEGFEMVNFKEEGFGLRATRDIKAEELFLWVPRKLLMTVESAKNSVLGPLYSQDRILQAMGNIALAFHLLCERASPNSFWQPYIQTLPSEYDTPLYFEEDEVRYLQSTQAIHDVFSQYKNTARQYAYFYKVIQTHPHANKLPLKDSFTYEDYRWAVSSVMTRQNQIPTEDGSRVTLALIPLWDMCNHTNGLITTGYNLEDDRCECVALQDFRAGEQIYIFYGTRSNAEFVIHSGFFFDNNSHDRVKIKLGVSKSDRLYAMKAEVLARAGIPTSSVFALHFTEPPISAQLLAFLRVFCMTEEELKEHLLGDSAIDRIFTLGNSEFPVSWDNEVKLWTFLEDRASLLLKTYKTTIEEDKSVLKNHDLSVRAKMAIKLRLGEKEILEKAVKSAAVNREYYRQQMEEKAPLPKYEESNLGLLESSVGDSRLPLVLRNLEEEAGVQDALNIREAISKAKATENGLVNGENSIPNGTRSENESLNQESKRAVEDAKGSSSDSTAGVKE
Kind of experiment: MALDI-TOF analysis of K73(66–88) methylation by SETD3 WT (Fig. 3e). Format: biochemical. The conditions noted are these: pH 10.5, 37 °C, 3 μM WT, 10 µM peptide, 40 µM SAM. As for the experimental part:
Fig. 3 Kinetics of SETD3 on H73 and K73 peptides. a Comparison of activities of three variants (WT, N255A, and N255V) on H73(66–80) peptide. The assays were performed at room temperature (~22 °C) and pH 8.0 using [WT] = 0.18 μM, [N255A] = 0.18 μM, and [N255V] = 0.72 μM. b Comparison of SETD3 WT activities on two K73 peptides (residues 66–80 and 66–88). The assays were performed at 37 °C and pH 10.5 using [WT] = 3 and 15 μM, respectively, for the long and short peptides. c Comparison of activities of three variants (N255A, N255V, and WT) on K73(66–88) peptide. The assays were performed at 37 °C and pH 10.5 using [N255A] = 90 nM, [N255V] = 0.72 μM and [WT] = 4 μM. Data represent the mean ± SD of N number of independent determinations (N = 3 for the WT and N = 2 for the mutants) performed in duplicate. Source data are provided as a Source Data file. d, e Mass spectrometry analysis of K73(66–88) methylation kinetic showing representative spectra at various time points for N255A variant (panel d) and SETD3 WT enzyme (panel e). […]
Recombinant human SETD3 (pXC2003) was expressed as a GST-fusion[22] in Escherichia coli BL21(DE3) CodonPlus^TM cells (Stratagene). […]
Actin K73 peptide (residues 66–88) was used as a substrate for SETD3 (Fig. 3d, e). […] We note that samples diluted into a 0.1% (v/v) TFA solution in water could not be detected by MALDI-TOF, thus the acetonitrile additive is necessary.

For “K73(66–88): K73-containing actin H73K peptide, residues 66–88 (TLKYPIEKGIVTNWDDMEKIWHH; UniProt P60709 66-88, looked up, variant H73K)”, the K73 methylation product entry is “only monomethyl lysine” (2 h); “substantial amounts of unmodified and monomethyl substrates remain, along with a small amount of dimethyl and tri-methyl products” (overnight).
